From US20200121803A1 (published 2020)
Substitutions are numbered along the chain they refer to.

T1: human CD98 on the cell surface (human)
T1 chain: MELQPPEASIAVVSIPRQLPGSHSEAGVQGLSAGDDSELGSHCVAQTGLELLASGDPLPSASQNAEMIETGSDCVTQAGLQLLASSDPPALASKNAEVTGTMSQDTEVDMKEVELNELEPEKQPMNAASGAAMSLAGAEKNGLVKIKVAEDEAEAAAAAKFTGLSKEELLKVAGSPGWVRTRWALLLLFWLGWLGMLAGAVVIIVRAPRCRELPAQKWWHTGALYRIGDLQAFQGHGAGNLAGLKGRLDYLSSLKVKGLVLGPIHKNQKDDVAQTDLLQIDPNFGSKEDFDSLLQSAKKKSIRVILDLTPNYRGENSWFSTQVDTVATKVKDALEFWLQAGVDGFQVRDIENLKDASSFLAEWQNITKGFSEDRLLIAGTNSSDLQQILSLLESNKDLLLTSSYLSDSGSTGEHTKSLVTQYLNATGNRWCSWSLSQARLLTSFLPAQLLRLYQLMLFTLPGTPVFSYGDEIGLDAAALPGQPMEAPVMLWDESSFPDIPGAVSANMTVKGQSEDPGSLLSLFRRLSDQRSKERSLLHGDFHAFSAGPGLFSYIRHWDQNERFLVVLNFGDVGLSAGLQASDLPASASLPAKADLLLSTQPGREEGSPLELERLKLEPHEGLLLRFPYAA

T2: human CD98, endogenously expressed on Molt-4 human acute lymphoblastic leukemia cells (human)
T2 chain: T1 chain

B1: ChAb1-CZ (other)
VH: EVKLVESGGGLVQPGGSLRLSCATSGFTFTDYYMSWVRQPPGKALEWLGFIRNPANVYTTEYSASVKGRFTISRDNSQSILYLQMNTLRAEDSATYYCARASYGNSEGWFAYWGQGTLVTVSA
VL: DIVMSQSPSSLAVSVGEKVTMSCKSSQNLLYNNNQKNYLAWYQQKPGQSPKLLIYWASTRESGVPDRFTGSGSGTDFTLTISSVKAEDLAVYYCQQYYSYPRTFGGGTKLEIK
modifications: synthon CZ on reduced interchain Cys of the constant regions (sites not numbered)
B2: ChAb3-CZ (other)
VH: EVKLVESGGGLVQPGNSLRLSCATSGFTFIDYYMSWVRQSPGKALEWLGFIRNKANGYTTEYSASVKGRFTISRDNSQSILYLQMDTLRAEDSATYYCTRDRPAWFVYWGQGTLVTVSA
VL: B1 VL with N28S, N32S, N33S, I81F, K85R, R102Y
modifications: synthon CZ on reduced interchain Cys of the constant regions (sites not numbered)
B3: ChAb5-CZ (other)
VH: B1 VH with S35T, P54K, V57G, Q78L, G104V
VL: B1 VL with N28S, N32S, N33S, P46L, Q96H
modifications: synthon CZ on reduced interchain Cys of the constant regions (sites not numbered)
B4: ChAb13-CZ (other)
VH: QVQLKESGPGLVQPSQTLSLTCTVSGFSLSSYGVIWVRQPPGKGLEWMGIIWANGNTNYNSALKSRLSISRDTSKSQVYLKMNSLQTEDTATYYCARHYYDGTHYYGYFDYWGQGVMVTVSS
VL: DTVMTQTPSSQAVSAGEKVTMSCKSSQSLLYSENKKKYLAWYQQKPGQSPKLLIYWASTRESGVPDRFIGSGSGTDFTLTISSVQAEDLAVYYCQQYYNFPYTFGAGTKLELK
modifications: synthon CZ on reduced interchain Cys of the constant regions (sites not numbered)
B5: ChAb8-CZ (other)
VH: EVQLVESGGGLVQPGRSLKLSCAASGFTFSDYAMAWVRQAPKKGLEWVASIIYDGRGTYYRDSVKGRFTISRDNAKSTLYLQMDSLRSEDTATYYCARQGDGTYYYWGYFDYWGQGVMVTVSS
VL: DIVMTQSPSSLAVSAGETVTINCKSSQSLLSSGNQKNYLAWYQQKPGQSPKLLIYWASTRQSGVPDRFIGSGSGTDFTLTINSVQAEDLAIYYCQQYYDTPYTFGAGTKLELK
modifications: synthon CZ on reduced interchain Cys of the constant regions (sites not numbered)
B6: ChAb12-CZ (other)
VH: B5 VH with Y109S
VL: B5 VL with N82S, Y93H
modifications: synthon CZ on reduced interchain Cys of the constant regions (sites not numbered)
B7: ChAb11-CZ (other)
VH: B5 VH with S50G
VL: B5 VL with K24R, N82S
modifications: synthon CZ on reduced interchain Cys of the constant regions (sites not numbered)
B8: ChAb10-CZ (other)
VH: B5 VH with G44S, S50T, Y60C, Y105H
VL: B5 VL with N82S, L110V, E111D
modifications: synthon CZ on reduced interchain Cys of the constant regions (sites not numbered)
B9: CD98 (CL-huAb110)-SE (antibody, human IgG1, kappa, L234A L235A, V domains shown)
VH: EVQLVQSGAEVKKPGASVKVSCKASGFTFSDYTMAWVRQAPGQGLEWVATIIYDARGTYYRDAVKGRFTITRDNSTSTLYLELSSLRSEDTAVYYCARQSDDTYYYWGYFDYWGQGTMVTVSS
VL: DIVMTQTPLSLPVTPGEPASINCKSSQSLLFSGNQKNYLAWYLQKPGQSPQLLIYWASTRQSGVPDRFSGSGSGTDFTLKISRVEAEDVGIYYCQQYYSSPYTFGQGTKLEIKR
modifications: synthon SE on reduced cysteine (see heavy chain); Bcl-xL inhibitor synthon SE on cysteines freed by TCEP reduction (Method A); DAR 1.9 by MS for the whole ADC
B10: CD98 (CL-huAb102)-SR (antibody, human IgG1, kappa, L234A L235A, V domains shown)
VH: EVQLVESGGGLVQPGGSLRLSCATSGFTFIDYYMSWVRQAPGKGLEWLGFIRNKANRYTTEYSASVKGRFTISRDNSKSILYLQMNSLKTEDTAVYYCTRDRPAWFVYWGQGTLVTVSS
VL: B9 VL with N22S, F31Y, G33S, Q61E, I91V, S100Y, Q106G, L110V
modifications: synthon SR on reduced cysteine (see heavy chain); Bcl-xL inhibitor synthon SR on cysteines freed by TCEP reduction (Method A); DAR 2.1 by MS for the whole ADC
B11: CD98 (CL-huAb104)-SR (antibody, human IgG1, kappa, L234A L235A, V domains shown)
VH: B10 VH with N56Y, R57G
VL: B9 VL with N22S, F31Y, G33S, Q61E, I91V, S100Y, Q106G, L110V
modifications: synthon SR on reduced cysteine (see heavy chain); Bcl-xL inhibitor synthon SR on cysteines freed by TCEP reduction (Method A); DAR 2.2 by MS for the whole ADC
B12: CD98 (CL-huAb102)-KZ (second row with this label, r76, DAR 2.2) (antibody, human IgG1, kappa, L234A L235A, V domains shown)
VH: B10 VH
VL: B9 VL with N22S, F31Y, G33S, Q61E, I91V, S100Y, Q106G, L110V
modifications: synthon KZ on reduced cysteine (see heavy chain); Bcl-xL inhibitor synthon KZ on cysteines freed by TCEP reduction (Method A); DAR 2.2 by MS for the whole ADC
B13: CD98 (CL-huAb110)-YG (antibody, human IgG1, kappa, L234A L235A, V domains shown)
VH: B9 VH
VL: B9 VL
modifications: synthon YG on reduced cysteine (see heavy chain); Bcl-xL inhibitor synthon YG on cysteines freed by TCEP reduction (Method E); DAR 2.8 by MS for the whole ADC
B14: CD98 (CL-huAb104)-KZ (antibody, human IgG1, kappa, L234A L235A, V domains shown)
VH: B10 VH with N56Y, R57G
VL: B9 VL with N22S, F31Y, G33S, Q61E, I91V, S100Y, Q106G, L110V
modifications: synthon KZ on reduced cysteine (see heavy chain); Bcl-xL inhibitor synthon KZ on cysteines freed by TCEP reduction (Method A); DAR 2.6 by MS for the whole ADC
B15: CD98 (CL-huAb110)-SR (antibody, human IgG1, kappa, L234A L235A, V domains shown)
VH: B9 VH
VL: B9 VL
modifications: synthon SR on reduced cysteine (see heavy chain); Bcl-xL inhibitor synthon SR on cysteines freed by TCEP reduction (Method A); DAR printed as '.0.7' by MS for the whole ADC
B16: CD98 (CL-huAb104)-YG (antibody, human IgG1, kappa, L234A L235A, V domains shown)
VH: B10 VH with N56Y, R57G
VL: B9 VL with N22S, F31Y, G33S, Q61E, I91V, S100Y, Q106G, L110V
modifications: synthon YG on reduced cysteine (see heavy chain); Bcl-xL inhibitor synthon YG on cysteines freed by TCEP reduction (Method E); DAR 1.3 by MS for the whole ADC
B17: CD98 (CL-huAb102)-KZ (antibody, human IgG1, kappa, L234A L235A, V domains shown)
VH: B10 VH
VL: B9 VL with N22S, F31Y, G33S, Q61E, I91V, S100Y, Q106G, L110V
modifications: synthon KZ on reduced cysteine (see heavy chain); Bcl-xL inhibitor synthon KZ on cysteines freed by TCEP reduction (Method A); DAR 2.8 by MS for the whole ADC
B18: CD98 (CL-huAb102)-YG (antibody, human IgG1, kappa, L234A L235A, V domains shown)
VH: B10 VH
VL: B9 VL with N22S, F31Y, G33S, Q61E, I91V, S100Y, Q106G, L110V
modifications: synthon YG on reduced cysteine (see heavy chain); Bcl-xL inhibitor synthon YG on cysteines freed by TCEP reduction (Method E); DAR 1.1 by MS for the whole ADC

Target: T1, human CD98 on the cell surface
Test: cell-based or functional assay

ADC potency, IC50 (nM), H146 (SCLC) growth inhibition [nM] | ADC potency, IC50 (nM), H2170 (NSCLC) growth inhibition [nM] | ADC potency, IC50 (nM), MOLT4 (leukemia) growth inhibition [nM] | Binder
~0.196 | 0.276 | 0.071 | B1
0.255 | ~0.171 | 0.026 | B2
~0.188 | 0.161 | 0.029 | B3
0.115 | 0.321 | 0.052 | B4
0.094 | 0.112 | 0.038 | B5
0.242 | 0.118 | 0.034 | B6
0.527 | 0.195 | 0.199 | B7
0.209 | 0.09 | 0.035 | B8

Target: T2, human CD98, endogenously expressed on …
Test: cell-based or functional assay

Molt4 IC50 (nM), 50% inhibition of cell proliferation, 72 h, ATPlite [nM] | Binder | % Cell Viability at 50 nM (Molt-4) [%]
0.502 | B9 | 5.7
0.03 | B10 | 12.7
0.045 | B11 | 2.7
0.35 | B12 | 16.2
0.493 | B13 | 10
0.089 | B14 | 21.2
0.332 | B15 | 11
2.67 | B16 | 25.3
0.062 | B17 | 20.7
1.21 | B18 | 31.9
